Results on 23 molecules are retold here after patent US12139520B2 (priority 2020, dated 2024).

Bridge positions count the residues as written; N and C are the ends. Square brackets hold non-standard residues; d marks the D form. Ends that are not written are not given here. Hyp = O=C(O)[C@@H]1C[C@@H](O)CN1; Cit = NC(=O)NCCC[C@H](N)C(=O)O Where only a bound is given, the exact number is not on record here.

Test [1] has as its target T1, hAMY3R (human, UniProt P30988).
T1 sequence 1: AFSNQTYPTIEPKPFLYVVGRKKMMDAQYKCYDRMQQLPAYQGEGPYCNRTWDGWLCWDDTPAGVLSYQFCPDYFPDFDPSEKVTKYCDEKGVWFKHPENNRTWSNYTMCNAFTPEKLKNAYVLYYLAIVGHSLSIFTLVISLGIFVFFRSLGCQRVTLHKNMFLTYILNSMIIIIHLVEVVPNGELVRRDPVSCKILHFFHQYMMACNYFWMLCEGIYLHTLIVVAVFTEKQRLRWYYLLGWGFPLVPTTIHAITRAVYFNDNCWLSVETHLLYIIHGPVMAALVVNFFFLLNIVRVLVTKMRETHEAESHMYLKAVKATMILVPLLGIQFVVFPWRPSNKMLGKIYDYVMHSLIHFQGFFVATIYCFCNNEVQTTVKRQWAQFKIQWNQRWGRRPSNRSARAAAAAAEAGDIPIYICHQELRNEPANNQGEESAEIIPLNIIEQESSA
T1 sequence 2: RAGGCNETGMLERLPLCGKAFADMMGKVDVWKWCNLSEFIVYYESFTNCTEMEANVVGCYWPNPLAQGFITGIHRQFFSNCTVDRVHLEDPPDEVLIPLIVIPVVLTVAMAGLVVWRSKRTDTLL
Nature of the test: cell-based or functional assay.

Test [2] deals with hAM1R (human, UniProt Q16602). Nature of the test: cell-based or functional assay.

As for GCRTGTCTVQ[Cit]LAHQIYQFTDKDKDNVAPRTKIGPNG[Hyp]-NH2 (disulfide 2-7 (inferred); ends not checked) [SEQ ID NO: 277], in test [1], the “hAMY3R EC50 (cAMP)” value was found to be 0.058 nM. Besides, the “hAM1R EC50 (cAMP)” value in test [2] was more than 5000 nM.

Take GCRFGTCTVQ[Cit]LAHQIYQFTDKDKDNVAPRTKISPNG[Hyp]-NH2 (disulfide 2-7 (inferred); ends not checked) [SEQ ID NO: 275]: in test [1], the “hAMY3R EC50 (cAMP)” value is 0.02 nM. In addition, in test [2], the “hAM1R EC50 (cAMP)” value was more than 5000 nM.

For KCNTATCTVQ[Cit]LAHQIYQATDKDKDNVAPPTNVGSNG[Hyp]-NH2 (disulfide 2-7 (inferred); ends not checked) [SEQ ID NO: 276], in test [1], the “hAMY3R EC50 (cAMP)” value was 0.056 nM. Also, the “hAM1R EC50 (cAMP)” value in test [2] is more than 5000 nM.

For the molecule GCRFGTCTVQ[Cit]LAHQIYQFTDKDKDNVAPRTKVSPNG[Hyp]-NH2 (disulfide 2-7 (inferred); ends not checked) [SEQ ID NO: 288], the “hAMY3R EC50 (cAMP)” value in test [1] came to 0.03 nM. Moreover, the “hAM1R EC50 (cAMP)” value in test [2] was more than 5000 nM.

Consider GCRTGTCTVQ[Cit]LAHQIYQFTDKDKDNVAPRSNVGPQG[Hyp]-NH2 (disulfide 2-7 (inferred); ends not checked) [SEQ ID NO: 281], for which the “hAMY3R EC50 (cAMP)” value in test [1] stood at 0.034 nM. In test [2], the “hAM1R EC50 (cAMP)” value was more than 5000 nM.

GCRFGTCTVQ[Cit]LAHQIYQFTDKDKDNVAPRSNVSPQGY-NH2 (disulfide 2-7 (inferred); ends not checked) [SEQ ID NO: 286]: the “hAMY3R EC50 (cAMP)” value in test [1] was 0.025 nM. In test [2], the “hAM1R EC50 (cAMP)” value was found to be 139 nM.

In the case of GCRTGTCTVQ[Cit]LAHQIYQFTDKDKDNVAPRTNVGPNGY-NH2 (disulfide 2-7 (inferred); ends not checked) [SEQ ID NO: 269], in test [1], the “hAMY3R EC50 (cAMP)” value worked out at 0.005 nM. Further, the “hAM1R EC50 (cAMP)” value in test [2] is more than 5000 nM.

On to GCRTGTCTVQ[Cit]LAHQIYQFTDKDKDNVAPRTNVGPQGY-NH2 (disulfide 2-7 (inferred); ends not checked) [SEQ ID NO: 273], for which the “hAMY3R EC50 (cAMP)” value in test [1] came to 0.021 nM. Also, in test [2], the “hAM1R EC50 (cAMP)” value was more than 5000 nM.

With KCNTATCTVQRLAHQIYQFTKDKDNVAPPTNVGSNG[Hyp]-NH2 (disulfide 2-7 (inferred); not fully specified; ends not checked) [SEQ ID NO: 29], the “hAMY3R EC50 (cAMP)” value in test [1] came to 0.008 nM. In test [2], the “hAM1R EC50 (cAMP)” value was more than 5000 nM.

On to GCRTGTCTVQ[Cit]LAHQIYQFTDKDKDNVAPRTNIGPQG[Hyp]-NH2 (disulfide 2-7 (inferred); ends not checked) [SEQ ID NO: 280], for which the “hAMY3R EC50 (cAMP)” value in test [1] was 0.024 nM. Further, in test [2], the “hAM1R EC50 (cAMP)” value is more than 5000 nM.

For GCRFGTCTVQ[Cit]LAHQIYQFTDKDKDNVAPRSKIGPQG[Hyp]-NH2 (disulfide 2-7 (inferred); ends not checked) [SEQ ID NO: 284], in test [1], the “hAMY3R EC50 (cAMP)” value was 0.028 nM. In addition, the “hAM1R EC50 (cAMP)” value in test [2] was 591 nM.

As to GCRFGTCTVQ[Cit]LAHQIYQFTDKDKDNVAPRTNVSPQGY-NH2 (disulfide 2-7 (inferred); ends not checked) [SEQ ID NO: 278], the “hAMY3R EC50 (cAMP)” value in test [1] was 0.011 nM. For the same molecule, the “hAM1R EC50 (cAMP)” value in test [2] is 155 nM.

Consider GCRFGTCTVQ[Cit]LAHQIYQFTDKDKDNVAPRTNVGPNG[Hyp]-NH2 (disulfide 2-7 (inferred); ends not checked) [SEQ ID NO: 270], for which the “hAMY3R EC50 (cAMP)” value in test [1] turned out to be 0.003 nM. Further, in test [2], the “hAM1R EC50 (cAMP)” value turned out to be 1880 nM.

Turning to GCRFGTCTVQ[Cit]LAHFLYQFTDKDKDNVAPRTKVGSNGY-NH2 (disulfide 2-7 (inferred); ends not checked) [SEQ ID NO: 279], the “hAMY3R EC50 (cAMP)” value in test [1] came to 0.013 nM. In test [2], the “hAM1R EC50 (cAMP)” value was 241 nM.

As to GCRFGTCTVQ[Cit]LAHQIYQFTDKDKDNVAPRTKVSPQG[Hyp]-NH2 (disulfide 2-7 (inferred); ends not checked) [SEQ ID NO: 287], the “hAMY3R EC50 (cAMP)” value in test [1] was found to be 0.055 nM. Besides, in test [2], the “hAM1R EC50 (cAMP)” value was more than 5000 nM.

Turning to GCRFGTCTVQ[Cit]LAHFLYQFTDKDGAIAPRTKIGSQGY-NH2 (disulfide 2-7 (inferred); ends not checked) [SEQ ID NO: 282], in test [1], the “hAMY3R EC50 (cAMP)” value was determined as 0.143 nM. Also, the “hAM1R EC50 (cAMP)” value in test [2] is 3880 nM.

In the case of GCRFGTCTVQ[Cit]LAHQIYQFTDKDKDNVAPRTKIGPQG[Hyp]-NH2 (disulfide 2-7 (inferred); ends not checked) [SEQ ID NO: 274], the “hAMY3R EC50 (cAMP)” value in test [1] amounted to 0.019 nM. Further, the “hAM1R EC50 (cAMP)” value in test [2] stood at 877 nM.

Turning to KCNTATCTVQRLAHQIYQFTDKDKDNVAPATNVGSNG[Hyp]-NH2 (disulfide 2-7 (inferred); ends not checked) [SEQ ID NO: 28], the “hAMY3R EC50 (cAMP)” value in test [1] was found to be 0.008 nM. The “hAM1R EC50 (cAMP)” value in test [2] is more than 5000 nM.

With GCRFGTCTVQ[Cit]LAHQIYQFTDKDKDNVAPRTNVSPQG[Hyp]-NH2 (disulfide 2-7 (inferred); ends not checked) [SEQ ID NO: 283], the “hAMY3R EC50 (cAMP)” value in test [1] came to 0.035 nM. The “hAM1R EC50 (cAMP)” value in test [2] is more than 5000 nM.

Regarding KCNTATCTVQ[Cit]LAHQIYQFTDKDKDNVAPRTEVGSNGY-NH2 (disulfide 2-7 (inferred); ends not checked) [SEQ ID NO: 272], the “hAMY3R EC50 (cAMP)” value in test [1] is 0.009 nM. For the same molecule, the “hAM1R EC50 (cAMP)” value in test [2] is more than 5000 nM.

As for KCNTATCTVQ[Cit]LAHQIYQFTDKDKDNVAPPTNVGSNG[Hyp]-NH2 (disulfide 2-7 (inferred); ends not checked) [SEQ ID NO: 268], the “hAMY3R EC50 (cAMP)” value in test [1] was found to be 0.014 nM. Besides, the “hAM1R EC50 (cAMP)” value in test [2] is more than 5000 nM.

As to GCRFGTCTVQ[Cit]LAHQIYQFTDKDKDNVAPRTNVSPNGY-NH2 (disulfide 2-7 (inferred); ends not checked) [SEQ ID NO: 271], the “hAMY3R EC50 (cAMP)” value in test [1] amounted to 0.01 nM. In test [2], the “hAM1R EC50 (cAMP)” value turned out to be 96.6 nM.

For GCRTGTCTVQ[Cit]LAHQIYQFTDKDKDNVAPRSKVGPQGY-NH2 (disulfide 2-7 (inferred); ends not checked) [SEQ ID NO: 285], the “hAMY3R EC50 (cAMP)” value in test [1] worked out at 0.157 nM. Moreover, in test [2], the “hAM1R EC50 (cAMP)” value is more than 5000 nM.
